Measurements: article PMC9482650, “Quantitative fragmentomics allow affinity mapping of interactomes” (Nature Communications, 2022)
One block for each binder: values may come before it.

What was measured:
Experiment in all cases: holdup assay
Design in all cases: key: below the threshold = too weak to quantify, mostly under pKd 3.1 to 4
[1] = target: T1, LRRC7, Q96NW7
T1 sequence (Q96NW7 1440-1537, limits assumed, looked up): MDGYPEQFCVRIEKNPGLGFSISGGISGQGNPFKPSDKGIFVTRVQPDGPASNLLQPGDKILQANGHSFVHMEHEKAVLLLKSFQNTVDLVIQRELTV

[2] = target: MAST1, Q9Y2H9
[3] = target: Inadl_5, Q8NI35
[4] = target: DLG4_1, P78352
[5] = target: MAGI3_2, Q5TCQ9
[6] = target: MAGI1_1, Q96QZ7
[7] = target: T2, SIPA1L2, Q9P2F8
T2 sequence (Q9P2F8 945-1036, limits assumed, looked up): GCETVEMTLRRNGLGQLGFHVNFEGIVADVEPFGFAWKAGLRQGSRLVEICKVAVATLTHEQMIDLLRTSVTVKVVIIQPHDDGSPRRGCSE

[8] = target: FRMPD2_3, Q68DX3
[9] = target: TJP1_2, Q07157
[10] = target: T3, LIN7A, O14910
T3 sequence (O14910 103-200, limits assumed, looked up): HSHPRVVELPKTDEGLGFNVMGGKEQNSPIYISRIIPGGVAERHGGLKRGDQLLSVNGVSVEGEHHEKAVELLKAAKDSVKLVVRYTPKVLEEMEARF

[11] = target: SCRIB_3, Q14160
[12] = target: T4, RADIL, Q96JH8
T4 sequence (Q96JH8 971-1071, limits assumed, looked up): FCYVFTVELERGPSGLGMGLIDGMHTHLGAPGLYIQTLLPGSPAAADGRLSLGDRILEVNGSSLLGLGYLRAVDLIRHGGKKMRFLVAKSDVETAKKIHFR

[13] = target: Inadl_4, Q8NI35
[14] = target: T5, DLG3_1, Q92796
T5 sequence (Q92796 125-227, limits assumed, looked up): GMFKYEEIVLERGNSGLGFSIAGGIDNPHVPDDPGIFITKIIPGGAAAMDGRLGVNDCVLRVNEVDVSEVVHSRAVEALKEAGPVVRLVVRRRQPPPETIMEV

[15] = target: LNX1_3, Q8TBB1
[16] = target: T6, GRIP1_2, Q9Y3R0
T6 sequence (Q9Y3R0 145-248, limits assumed, looked up): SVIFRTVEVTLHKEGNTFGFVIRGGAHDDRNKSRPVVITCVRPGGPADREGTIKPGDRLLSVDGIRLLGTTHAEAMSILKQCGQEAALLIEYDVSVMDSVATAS

[17] = target: NHERF4_4, Q86UT5
[18] = target: MAGI2_6, Q86UL8
[19] = target: FRMPD2_2, Q68DX3
[20] = target: MAGI2_4, Q86UL8
[21] = target: T7, DLG3_2, Q92796
T7 sequence (Q92796 221-321, limits assumed, looked up): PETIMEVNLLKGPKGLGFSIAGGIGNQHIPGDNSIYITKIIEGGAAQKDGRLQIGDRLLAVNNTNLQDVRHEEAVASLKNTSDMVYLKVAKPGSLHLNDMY

[22] = target: T8, MPP2, Q14168
T8 sequence (Q14168 180-250, limits assumed, looked up): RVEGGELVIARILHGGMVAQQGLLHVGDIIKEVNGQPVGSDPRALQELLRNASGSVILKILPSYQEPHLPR

[23] = target: TJP2_1, Q9UDY2
[24] = target: T9, GRIP1_7, Q9Y3R0
T9 sequence (Q9Y3R0 999-1096, limits assumed, looked up): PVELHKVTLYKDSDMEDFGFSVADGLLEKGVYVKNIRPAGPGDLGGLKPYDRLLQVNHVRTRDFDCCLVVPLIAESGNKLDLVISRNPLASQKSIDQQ

[25] = target: T10, MPDZ_10, O75970
T10 sequence (O75970 1624-1722, limits assumed, looked up): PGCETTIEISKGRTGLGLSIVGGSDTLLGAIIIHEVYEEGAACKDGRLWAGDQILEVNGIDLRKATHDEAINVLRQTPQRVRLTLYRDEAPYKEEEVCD

[26] = target: MAGI1_2, Q96QZ7
[27] = target: PDLIM1, O00151
[28] = plain residues with an end cap or a label only (N-terminal biotin on a linker: ttds)
[29] = plain residues with an end cap or a label only (N-terminal biotin on a linker: ado-ado)

Sequence of MAST1, Q9Y2H9 (Q9Y2H9 962-1065): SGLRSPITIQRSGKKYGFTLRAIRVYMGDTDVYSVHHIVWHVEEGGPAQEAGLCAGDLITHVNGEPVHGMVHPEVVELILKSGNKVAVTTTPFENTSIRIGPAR
Sequence of Inadl_4, Q8NI35 (Q8NI35 547-651): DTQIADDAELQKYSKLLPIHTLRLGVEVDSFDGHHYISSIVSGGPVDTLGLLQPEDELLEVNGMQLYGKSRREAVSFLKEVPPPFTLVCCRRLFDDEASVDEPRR
Sequence of TJP2_1, Q9UDY2 (Q9UDY2 24-128): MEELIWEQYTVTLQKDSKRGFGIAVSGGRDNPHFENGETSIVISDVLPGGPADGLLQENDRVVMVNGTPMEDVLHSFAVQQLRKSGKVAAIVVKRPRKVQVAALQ
Sequence of NHERF4_4, Q86UT5 (Q86UT5 464-550): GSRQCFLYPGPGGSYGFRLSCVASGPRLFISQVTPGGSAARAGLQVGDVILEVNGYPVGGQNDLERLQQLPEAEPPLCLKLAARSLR
Sequence of MAGI1_1, Q96QZ7 (Q96QZ7 1-106): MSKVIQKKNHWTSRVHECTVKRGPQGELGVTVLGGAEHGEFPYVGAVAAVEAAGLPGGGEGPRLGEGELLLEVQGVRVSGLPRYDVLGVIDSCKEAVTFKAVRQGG
Sequence of PDLIM1, O00151 (O00151 1-87): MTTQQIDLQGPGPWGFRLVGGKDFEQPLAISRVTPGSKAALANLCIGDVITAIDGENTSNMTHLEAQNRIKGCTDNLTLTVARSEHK
Sequence of MAGI3_2, Q5TCQ9 (Q5TCQ9 398-503): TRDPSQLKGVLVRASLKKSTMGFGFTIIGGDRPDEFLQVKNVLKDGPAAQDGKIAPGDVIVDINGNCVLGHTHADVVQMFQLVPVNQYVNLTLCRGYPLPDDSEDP
Sequence of MAGI2_4, Q86UL8 (Q86UL8 772-865): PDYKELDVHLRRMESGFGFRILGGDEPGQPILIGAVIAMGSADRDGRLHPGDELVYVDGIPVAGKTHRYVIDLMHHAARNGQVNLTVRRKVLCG
Sequence of FRMPD2_3, Q68DX3 (Q68DX3 1073-1166): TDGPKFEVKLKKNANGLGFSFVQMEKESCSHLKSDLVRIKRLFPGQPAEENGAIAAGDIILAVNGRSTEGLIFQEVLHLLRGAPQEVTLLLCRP
Sequence of SCRIB_3, Q14160 (Q14160 999-1103): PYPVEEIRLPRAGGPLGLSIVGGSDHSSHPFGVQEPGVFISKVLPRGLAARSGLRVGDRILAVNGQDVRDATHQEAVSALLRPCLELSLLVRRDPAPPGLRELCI
Sequence of MAGI2_6, Q86UL8 (Q86UL8 1141-1229): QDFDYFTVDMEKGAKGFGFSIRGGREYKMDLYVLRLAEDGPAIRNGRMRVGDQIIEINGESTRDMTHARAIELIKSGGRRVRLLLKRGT
Sequence of LNX1_3, Q8TBB1 (Q8TBB1 500-596): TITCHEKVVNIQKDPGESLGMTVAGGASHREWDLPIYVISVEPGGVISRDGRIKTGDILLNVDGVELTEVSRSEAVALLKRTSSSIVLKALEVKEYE
Sequence of Inadl_5, Q8NI35 (Q8NI35 673-780): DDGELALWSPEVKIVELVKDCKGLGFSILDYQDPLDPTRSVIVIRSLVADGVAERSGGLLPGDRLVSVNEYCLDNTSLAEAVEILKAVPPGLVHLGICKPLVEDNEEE
Sequence of MAGI1_2, Q96QZ7 (Q96QZ7 456-580): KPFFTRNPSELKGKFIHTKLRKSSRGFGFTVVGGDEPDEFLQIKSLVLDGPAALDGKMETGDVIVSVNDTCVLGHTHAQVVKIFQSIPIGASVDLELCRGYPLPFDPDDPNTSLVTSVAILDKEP
Sequence of DLG4_1, P78352 (P78352 62-152): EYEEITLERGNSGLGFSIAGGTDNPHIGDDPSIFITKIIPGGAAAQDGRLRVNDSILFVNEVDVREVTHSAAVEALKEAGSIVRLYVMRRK
Sequence of FRMPD2_2, Q68DX3 (Q68DX3 944-1038): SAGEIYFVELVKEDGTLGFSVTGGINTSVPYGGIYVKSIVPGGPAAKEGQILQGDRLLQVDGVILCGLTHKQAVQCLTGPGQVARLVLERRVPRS
Sequence of TJP1_2, Q07157 (Q07157 181-274): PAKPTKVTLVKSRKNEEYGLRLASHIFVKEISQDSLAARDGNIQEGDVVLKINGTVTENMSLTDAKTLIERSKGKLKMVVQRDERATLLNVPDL

B1: PODXL, O00592 (peptide)
chain: DLDEEEDTHL
pKd [1, 28]: below the threshold
pKd [2, 28]: 4.19
pKd [3, 28]: below the threshold
pKd [4, 28]: below the threshold
pKd [5, 28]: below the threshold
pKd [6, 28]: below the threshold
pKd [7, 28]: below the threshold
pKd [8, 28]: below the threshold
pKd [9, 28]: below the threshold
pKd [10, 28]: below the threshold
pKd [11, 28]: below the threshold
pKd [12, 28]: below the threshold
pKd [13, 28]: below the threshold
pKd [14, 28]: below the threshold
pKd [15, 28]: below the threshold
pKd [16, 28]: 3.63
pKd [17, 28]: below the threshold
pKd [18, 28]: below the threshold
pKd [19, 28]: below the threshold
pKd [20, 28]: below the threshold
pKd [21, 28]: below the threshold
pKd [22, 28]: below the threshold
pKd [23, 28]: below the threshold
pKd [24, 28]: below the threshold
pKd [25, 28]: below the threshold
pKd [26, 28]: below the threshold
pKd [27, 28]: 3.52

B3: MAPK12, P53778 (peptide)
chain: GARVSKETPL
pKd [1, 28]: below the threshold
pKd [2, 28]: 4.65
pKd [3, 28]: below the threshold
pKd [4, 28]: below the threshold
pKd [5, 28]: 4.17
pKd [6, 28]: below the threshold
pKd [7, 28]: below the threshold
pKd [8, 28]: below the threshold
pKd [9, 28]: below the threshold
pKd [10, 28]: below the threshold
pKd [11, 28]: 5.07
pKd [12, 28]: below the threshold
pKd [13, 28]: below the threshold
pKd [14, 28]: 3.49
pKd [15, 28]: below the threshold
pKd [16, 28]: below the threshold
pKd [17, 28]: below the threshold
pKd [18, 28]: 3.89
pKd [19, 28]: below the threshold
pKd [20, 28]: below the threshold
pKd [21, 28]: 4.28
pKd [22, 28]: below the threshold
pKd [23, 28]: below the threshold
pKd [24, 28]: below the threshold
pKd [25, 28]: below the threshold
pKd [26, 28]: 3.76
pKd [27, 28]: below the threshold

Results, then the binder that gave them:

pKd [1, 28]: below the threshold
pKd [2, 28]: 4.04
pKd [3, 28]: below the threshold
pKd [4, 28]: 3.83
pKd [5, 28]: 3.81
pKd [6, 28]: below the threshold
pKd [7, 28]: below the threshold
pKd [8, 28]: below the threshold
pKd [9, 28]: below the threshold
pKd [10, 28]: below the threshold
pKd [11, 28]: 3.93
pKd [12, 28]: 3.76
pKd [13, 28]: below the threshold
pKd [14, 28]: below the threshold
pKd [15, 28]: 3.55
pKd [16, 28]: below the threshold
pKd [17, 28]: below the threshold
pKd [18, 28]: 4.02
pKd [19, 28]: below the threshold
pKd [20, 28]: 3.69
pKd [21, 28]: 4.38
pKd [22, 28]: below the threshold
pKd [23, 28]: below the threshold
pKd [24, 28]: below the threshold
pKd [25, 28]: 3.93
pKd [26, 28]: below the threshold
pKd [27, 28]: below the threshold
B2: GDA, Q9Y2T3 (peptide)
chain: KQVVPFSSSV

pKd [1, 29]: 3.93
pKd [2, 29]: 4.89
pKd [3, 29]: below the threshold
pKd [4, 29]: 4.61
pKd [5, 29]: 4.56
pKd [6, 29]: below the threshold
pKd [7, 29]: below the threshold
pKd [8, 29]: 3.56
pKd [9, 29]: below the threshold
pKd [10, 29]: 4.07
pKd [11, 29]: 4.91
pKd [12, 29]: below the threshold
pKd [13, 29]: below the threshold
pKd [14, 29]: 4.09
pKd [15, 29]: below the threshold
pKd [16, 29]: below the threshold
pKd [17, 29]: below the threshold
pKd [18, 29]: 4.59
pKd [19, 29]: 5.22
pKd [20, 29]: below the threshold
pKd [21, 29]: 4.8
pKd [22, 29]: below the threshold
pKd [23, 29]: below the threshold
pKd [24, 29]: below the threshold
pKd [25, 29]: below the threshold
pKd [26, 29]: below the threshold
pKd [27, 29]: below the threshold
B4: DGKI, O75912 (peptide)
chain: IGHEDLETAV
